The term Kd denotes a measure of binding affinity in units of concentration.

This passage reports binding result and Kd results from article PMC8386010, “Nanobody-armed T cells endow CAR-T cells with cytotoxicity against lymphoma cells” (Cancer Cell International, 2021).

In test [1] the target is T1, human CD19 antigen (Homo sapiens, UniProt P15391).
The target in test [2] is T1, human CD19 antigen. Kind of test: SPR; Biacore T200; nanobody captured by immobilised mouse anti-human IgG (Fc) antibody; human CD19/CD20 antigen injected in 7 serial twofold dilutions from 10 µg/ml, 30 µl/min, association 120 s, dissociation 300 s. The settings on record: both partners purified. A general note: In SPR one partner is held on a chip, and binding of the other changes the refractive index at the surface.

Test [3] has as its target T2, anti-CD20 Nb1 (Bactrian camel).
T2 construct: nanobody selected from a Bactrian camel naive phage display library; In SPR it was captured by an anti-human IgG (Fc) antibody; also called anti-CD20 nanobody; source: cloned into the pCZN1 vector, expressed and purified
Described as above. The settings on record: both partners purified.

No end group written: not given here.

T1 sequence (P15391 20-291): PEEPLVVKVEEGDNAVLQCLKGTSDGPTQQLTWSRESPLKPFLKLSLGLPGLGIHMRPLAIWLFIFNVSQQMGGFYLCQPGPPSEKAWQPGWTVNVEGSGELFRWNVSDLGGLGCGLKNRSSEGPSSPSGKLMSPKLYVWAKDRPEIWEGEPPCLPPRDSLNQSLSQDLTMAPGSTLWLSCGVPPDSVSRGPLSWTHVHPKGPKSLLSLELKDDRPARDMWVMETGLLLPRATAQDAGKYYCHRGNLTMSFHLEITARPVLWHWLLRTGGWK

B1: Anti-CD19 Nb2 (VHH)
VHH: QVQLQESGGGSVQTGGSLRLSCAASGFSYTGHHMGWFRQVAAQEREWVGSIYTDPGTTFYADSVKGRFTISQDVAKKMVYLQMNNLKPTDTGIYFCAAEPVADGPPLMSRDRCFGSWGQGTQVTVSS
For B1, the binding result in test [1] is given as “binds”.

B2: anti-CD19 Nb1 (VHH)
VHH: QVQLQESGGGSVQAGGSLRLSCAVRRPTDSRNCMAWFRQAPGEQREAVAGIDIYRTTGYAESVKGRFTISQDNAKNTLFLQMNSLKPEDSGTYYCAAARPCKYGSEWRRSASDFLYWGQGTQVTVSS
notes: nanobody selected from a Bactrian camel naive phage display library; In SPR it was captured by an anti-human IgG (Fc) antibody; also called anti-CD19 nanobody; source: cloned into the pCZN1 vector, expressed and purified
Turning to B2, binding in test [2] was put at a Kd of 290 nM.

B3: human CD20 antigen (natural protein)
chain: KISHFLKMESLNFIRAHTPYINIYNCEPANPSEKNSPSTQYCYSIQS
modifications: cysteine pairing not given here; also: biotinylated for panning, position not given here
As for B3, in test [3], the Kd was 147 nM.

B4: Anti-CD19 Nb3 (VHH)
VHH: QVQLQESGGGSVQGGGSLRLSCAVSGATYMIQYMGWFRQAPGKEREGVAVIHSDDRTTYADSVKGRFTISQDNANHTLYLQMNSLKPEDTGMYVCASSLSKGGYYRGDLVPGQFTYWGRGTQVTVSS
On to B4, for which the binding result in test [1] is recorded as “binds”.
